In test [1] the target is Cadonilimab (hG1WT). Kind of test: BLI. (In BLI a coated tip is dipped into the sample, and binding shifts an interference pattern.)
Test [2] concerns the target human PD-1 and CTLA-4 mixture (mol/mol: 1/1) immobilized on AMC sensors (human). Kind of test: BLI.
For test [3], the target named is human PD-1 on 293 T-PD1 cells (human) (UniProt Q15116). Kind of test: flow cytometry on cells.
The target of test [4] is human CTLA-4 on 293 T-CTLA4 cells (human) (UniProt P16410). Kind of test: flow cytometry on cells.
Chain of UniProt P16410 (P16410 36-223): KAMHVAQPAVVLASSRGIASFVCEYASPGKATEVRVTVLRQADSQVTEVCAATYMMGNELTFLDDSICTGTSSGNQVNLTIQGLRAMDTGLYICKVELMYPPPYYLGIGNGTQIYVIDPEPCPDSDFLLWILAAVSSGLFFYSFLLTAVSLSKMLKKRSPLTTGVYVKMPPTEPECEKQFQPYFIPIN
Test [5] deals with fusion protein of human Fc with human PD-1 extracellular domain (PD1-hFc) (human) (UniProt Q15116). Kind of test: ELISA. (In general: An ELISA detects its analyte on a solid surface through an enzyme-linked reagent.)
Test [6] concerns the target fusion protein of mouse Fc with human PD-1 extracellular domain (PD1-mFc) (Homo sapiens (Human).) (UniProt Q15116). Kind of test: ELISA.
Test [7] has as its target FcγRIIIa_V158 (FcγRIIIa 158 V alleles). Kind of test: BLI.
Test [8] concerns the target FcγRIIIa_F158 (FcγRIIIa 158 F alleles) (UniProt P08637). Kind of test: BLI.
Chain of UniProt P08637 (P08637 17-254): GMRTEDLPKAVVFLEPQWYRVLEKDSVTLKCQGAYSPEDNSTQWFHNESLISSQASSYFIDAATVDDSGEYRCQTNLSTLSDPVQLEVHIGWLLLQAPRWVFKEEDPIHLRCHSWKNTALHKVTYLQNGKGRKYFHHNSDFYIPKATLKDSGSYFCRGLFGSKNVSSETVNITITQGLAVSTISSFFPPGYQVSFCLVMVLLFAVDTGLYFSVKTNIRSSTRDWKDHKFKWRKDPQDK
The target in test [9] is FcγRIa (UniProt P12314). Kind of test: BLI.
Chain of UniProt P12314 (P12314 16-374): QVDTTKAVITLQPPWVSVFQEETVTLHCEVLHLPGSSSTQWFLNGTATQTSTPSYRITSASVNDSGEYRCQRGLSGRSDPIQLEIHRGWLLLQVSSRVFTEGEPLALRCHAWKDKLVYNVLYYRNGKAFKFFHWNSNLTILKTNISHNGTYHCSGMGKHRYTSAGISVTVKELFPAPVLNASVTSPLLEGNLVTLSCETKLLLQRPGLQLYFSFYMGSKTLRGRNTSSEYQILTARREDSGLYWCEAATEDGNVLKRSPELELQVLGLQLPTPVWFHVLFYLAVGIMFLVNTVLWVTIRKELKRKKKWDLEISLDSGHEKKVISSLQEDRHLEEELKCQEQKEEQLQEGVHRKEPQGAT

“And” between values parts separate entries of the source, which are not always exact repeats. Equal entries are not always repeated.

In test [1], C1q (complex) came in with a Kd of 2.53 nM, a koff of 0.00517 s⁻¹ and a kon of 2.05e+06 M⁻¹ s⁻¹.

As to Cadonilimab (bispecific antibody), in [2], the fold higher binding avidity than with low-density PD-1 came to 10 fold. For the same substance, the EC50 in test [3] was 1.81 nM and 2.62 nM; in test [4], 3.93 nM and 3.09 nM; in [5] it was 0.792 nM and 1.43 nM; in test [6], 0.051 nM.

In the case of “Cadonilimab (hG1WT) (bispecific antibody)”, the Kd was found to be 177 nM in test [7], 221 nM in test [8] and 5.92 nM in test [9]. Moreover, the values for the koff in [7], in test [8] and in test [9] were 0.0214 s⁻¹, 0.0247 s⁻¹ and 0.00181 s⁻¹, respectively. Also, the values for the kon in test [7], in test [8] and in [9] were 121000 M⁻¹ s⁻¹, 112000 M⁻¹ s⁻¹ and 306000 M⁻¹ s⁻¹, respectively.

Broadly, the Kd is the concentration at which binding is half-saturated. Low readings indicate higher affinity, high ones lower affinity. One may read the koff as a measure of how fast the partners let go of each other. As a reminder, the kon is the rate constant with which the complex forms. As a reminder, the EC50 is the midpoint of the concentration-response curve.
